{
  "source": "a protein production outcome set (Wang et al. 2014)",
  "data": [
    {"assay": "label from the status in PepcDB records", "values": [
      {"sequence": "MQNMFDGVQLFVEVVEAGGFAKAGKRLSLTRSTIGKAIARLEMRLGVQLFQRTTRVQSLTEDGQQYYERCLRAIKELRAGEAMLEQGRREVAGRLHVSLPVLFGRQCVAPILRTYAREHPQLELELNFSDHHVDLIADGFDLAVRNGPLGNGTTLRARRLGNQRKILCASPTYLAARGKPHTLADLADHDLLTYCRNDRNMAWTLPDATGALVDIPITSRLRCNDLEVIADTAVDGMGVAWLPYWLLMERMQRGELIGIWGDRPSAVIECHVVWPAAQHVPLRSRLAINLLAAELPKYLEA", "protein production": "failed"},
      {"sequence": "MQNPRRICVADPNHRLSQKRFTRNSRDIFICPDCGCIMADVDFDHDQYESGDYYTMQHKTVQSIEEVWGFRWRYILDQILKINGRSSLLDVGAGNGYFVALASREFSFDASGLEISQEEVQFAADVLNIGLIREDLTQHNLDYDVVTCLNVLEHVVDPQLFLSHLVNRVKPGGLLVITTPNPACIHRKVKGLKNWNMIAPPHHINLFTKESLYILLMRYGLIQLDYQTISTYVNFVRGFDTENLLLRRLFFNLLKIFDLGADHFFIVKKPSQC", "protein production": "failed"},
      {"sequence": "MQNQYFTVQENYKERFYQIPKVFFTSENYKNLTNDMKIAYAILRDRLNLSIKNSWVDEDGNIYFVYSNEKLMEILNCKKEKLTKIKKGL", "protein production": "failed"},
      {"sequence": "MQNSIYKQFWKYTIPTVAAMLVNGLYQVVDGIFIGRYVGADGLAGINVAWPVIGSILGIGMMVGVGTGALTSIKQGEQDQQGAKRVLTTGLLFLLALMPIVATILFFFADDFIRWQGAQERVYELGLQYLQILIVACIFSLGSIAVPFLLRNDNSPNLATILMVIGAIINIVLDYVFIAWMNWELTGAAIATALAQMVVTVLGVGYFFSSKAKLRLTFRELKVQLDAIPKIVLIGTSSFFMYAYGSTMVALHNALFAQYGSPLLIGAYAILGYIVTVYYLVAEGIANGMQPLVSYNHGARNQDNIRKLLQIAMGTSVLGGVVFVVLMNLFPYQLVSVFNDADQQLIESAVMGIRLHMFALFMDGFLVVAGAYYQSVNKGSKAMFVTVGNMLIQLPFLFIMPKLLGVTGIWIAFPLSNIALSLVVMSMLWRDIKKLMVDSPVEPSIQAS", "protein production": "not failed"},
      {"sequence": "MQPFLFSDSSACLHVSPAMKISVIIPVYNDPSGIDATLRSVMEQDHSDYEVIPVDNNSTDRTPAVIREWAHQYPNRIRPASEHDTQSSYAARNAGIEAAQGEILVFIDADMAAPSYWLTDVHEAFSASEADYLGYEVDVYVPEDEAGFWGWYDTVMGLPSRYHYDEKQFVPTSCLAVRRAVFEKVGRFDETAVSGGDKEFGERVHRHPDLTTAFRDDIVVCHPARTTFEAHRAKALRVGRGLARLCDPSTASGDTTSVLIELLLHAVPPDPRRVAEQAHDVPAHQFLRLYIADWILRYLRLYGALTYCRKEAPE", "protein production": "failed"},
      {"sequence": "MQPFVYMAAPARIVFSAGSSADVAEEIRRLGLSRALVLSTPQQKGDAEALASRLGRLAAGVFSEAAMHTPVEVTKTAVEAYRAAGADCVVSLGGGSTTGLGKAIALRTDAAQIVIPTTYAGSEVTPILGQTENGVKTTMRGPEILPEVVIYDAELTLGLPVAISMTSGLNAMAHAAEALYARDRNPIASMMAVEGLRAMIEALPVVRQAPHDIGARETALYGAWLCGTVLGAVGMSLHHKLCHTLGGSLDLPHAETHAVLLPHTIAYVEEAAPNLLAPLAALVGGRAGAGLFDFAARLGAPSSLAALGVGADDLDPMAELATANPYWCPRPIEKTAIRDLLQRAFEGARPA", "protein production": "not failed"},
      {"sequence": "MQPRFLGQLGLADVVTVANAALGFIAAAVAVFDTELAARLILLAAIADGLDGVIARFRGGTPVGPILDSLADVASFGVAPAVLVYALASGGEVTLDEPLAVAAVVVAALYVAMAVVRLGFYLLEDDGAPETVGVQTTLAATVLSVLHLAGVTDPAVFVAATAAFAYLMVASITYPELYARDALILGGLQACVVLFPTAFGRAFPRVLLVFALGYLLLAPVAYWRSTEGKRS", "protein production": "failed"},
      {"sequence": "MQPTGNQIQQNQQQQQQLIMRVPKQEVSVSGAARRYVQQAPPNRPPRQNHQNGAIGGKKSSVTIQEVPNNAYLETLNKSGNNKVDDDKLPVFLIKLWNIVEDPNLQSIVHWDDSGASFHISDPYLFGRNVLPHFFKHNNMNSMVRQLNMYGFRKMTPLSQGGLTRTESDQDHLEFSHPCFVQGRPELLSQIKRKQSARTVEDKQVNEQTQQNLEVVMAEMRAMREKAKNMEDKMNKLTKENRDMWTQMGSMRQQHARQQQYFKKLLHFLVSVMQPGLSKRVAKRGVLEIDFCAANGTAGPNSKRARMNSEEGPYKDVCDLLESLQRETQEPFSRRFTNNEGPLISEVTDEFGNSPVGRGSAQDLFGDTFGAQSSRYSDGGATSSREQSPHPIISQPQSNSAGAHGANEQKPDDMYMGSGPLTHENIHRGISALKRDYQGASPASGGPSTSSSAPSGAGAGARMAQKRAAPYKNATRQMAQPQQDYSGGFVNNYSGFMPSDPSMIPYQPSHQYLQPHQKLMAIEDQHHPTTSTSSTNADPHQNLYSPTLGLSPSFDRQLSQELQEYFTGTDTSLESFRDLVSNHNWDDFGNNVPLDDDEEGSEDPLRQLALENAPETSNYDGAEDLLFDNEQQYPENGFDVPDPNYLPLADEEIFPHSPALRTPSPSDPNLV", "protein production": "not failed"},
      {"sequence": "MQRANREHLEIISLEEISMLVSSDFDLPEVLQHVTAKVATQLKVSVCNIYLREGDEVVLAATHGFDPAFIGKIRIKIGDGITGSVARDGQYISLSRASQDPRYRYFPELQEEKYNSMLSFPIGDKKEVYGVINLNTTSIRSFHEDEIYFVSIIANLILTAIKLRQQVASSRKAAEA", "protein production": "not failed"},
      {"sequence": "MQRCLRIQVARRHKLRNGKILDLGQQPTAPLLSLYLSTAQSRVISNEEPASISWSCAEAGSALGLSSASGSAEEAEPWPGVRRGTEAGQYEFARAGEAAAAVRAAAAVAVARAGMRRYLRVVGLCLACGFCSLLYAFSQLAVSLEEGAAVGRRPQAAVASWLADGGRGTGRGAGSAGPGRTGRCKEVSLSYWNPYWMLPSDVCGVNCFWEAAFRYGLKTRPTEKMHLAVVACGDRLEETVTMLKSALIFSIKPLHVHIFAEDQLHDSFKDRLDSWSFLQRFNYSLYPITFPSDSAMEWKKLFKPCASQRLFLPLILKGVDSLLYVDTDVLFLRPVDDIWSLLERFNSTQIAAMAPEHEEPRVGWYNRFARHPYYGRTGVNSGVMLMNMTRMRRKYFKNDMTTARLQWGDILMPLLKKYKLNITWGDQDLLNIMFYHNPESLFVFPCQWNYRPDHCIYGSNCREAEEEGVFILHGNRGVYHDDKQPAFRAMYEALRNCSLEDDSVRSLLKPLELELQKTVHTYCGKTYKIFIKQLAKSIRNRYDTPPKER", "protein production": "failed"},
      {"sequence": "MQRFALIGAGFIGGVHGDNLAAHPDVDLALVFDIDLARATDLAKRHGSRATTDLAEVFDPTAIDAVFIASSSNTHAEHLRAAATAGIPALCEKPIDLDLAHAVDIVRFAETRSLRAMVDFNRRFDRDYAELQRVVASGEIGSVELIQMTSRGPAMPPLEYIAVSGGQMRDQTVHFFDLARWISGLDPESVFATGSTLAEPRLAEYGDVDTSAVTLRLPGGALVQIDCTRRIGYGYDERIEVLGSTGMVEARRQRAGSVSRYSAGRVVDDGLHAGWFERIRGSYRTALDHFVDALENGAAIGPTLAEGLKAQAIAEAATRSLTSGRMEPIEYPA", "protein production": "failed"},
      {"sequence": "MQRTLDITQAMIDGYGRINGDNDIIHYDHDYAVQRGFRGTLLHGPHMTALAADLGARRYASDWLYRGKLHTKWIGPVCPGDTFVAALNEQGEIEAVSGGKTVMVGSASLAD", "protein production": "failed"},
      {"sequence": "MQRVAQWAADVPEETLNLLELSQVAGVSLRQLQSAFKAFTGMAPSQWLRLRRLNSAHRELLSRGPTETTVAEVAMHWSFWHLGRFSSSYRALFKELPSQTLKRSAVARR", "protein production": "failed"},
      {"sequence": "MQSAYSFLPQVIAHRGSSGQAPENTLASLHLAGQQGIKWVEIDVMLSGDGIPVIFHDDYLSRTTDGDGLIYKTPLAELKQLDAGSWKGQEYQQETIPTLLEAIEVISQYGMGLNLELKPCEGLEEETIAASVEVLKQHWPQDLPLLFSSFNYFALVSAKALWPEIARGYNVSAIPSAWQERLEHLDCAGLHIHQSFFDVQQVSDIKAAGYKVLAFTINDESLALKLYNQGLDAVFSDYPQKIQSAIDSHIN", "protein production": "not failed"},
      {"sequence": "MQSLGSLAKNIKPNQNIVEEEHNLKCERCGNTYDYYKFSNGKEFRHGCDCSMIAAGKEAEQQRKQKYLNRIFNQSNVNASLRDATVNSYQPQNDHQVHAKSTAIEYVKGFSVDKPKSLILQGSYGTGKSHLAYAVAKAIKQQGYSVAFMHIPMLMERIKATYNRNATETTDELVQLLSSIDLLVLDDVGVENTEHTLNKLFSIVDNRVGKNNIFTTNFSDKELNQNMNWQRINSRMKQNARTVRVLGDDFRGRDAW", "protein production": "failed"},
      {"sequence": "MQSSAVFPLSPLIPLLQQRRLSLRHHPITAASSSDLNMSPNKPTPYVLSAIVPIVGGVALASISEVSFNWAGFSSAMASNLTNQSPNNYIFEF", "protein production": "failed"},
      {"sequence": "MQSSNDPPRGAGGGPECAADHRAVPGRTYVETGQGAGYDGPRYDDPWYDALASGWGESAGPAAPGPTVPPMRRSAPAEPPRAAADVYLEVQRSAAFQEVRSRYRRFVVPAVAGFFLWYVAYVVAATSAPALMARPVAGAVNVAMVAGLGQFLTTFLLTWAYARHARLRRDRAALELRWDTQELTRGVRGDAS", "protein production": "failed"},
      {"sequence": "MQTNEHEHVIEVTDLRRVYGGGFEAVRGIDFSVRRGEVFALLGTNGAGKTSTVELLEGLAAPAGGRVRVLGHDPYTERAAVRPRTGVMLQEGGFPSELTVAETARMWAGCVSGARPPAEVLALVGLEAKSGTRVKQLSGGQRRRLDLALALLGDPEVLFLDEPSTGLDAEGRRDTWELVGALRDQGTTVLLTTHYLEEAEHLADRLAIMHDGRIAATGTPAEVTAAQPSHISFELPDGYFVGDLPPLAELGVSDHETDGRTVKLRTRELQRAATGLLVWAAQAAVELRRLDVRSASLEEAFLSIAKQVSARSDGTATDTTEKEYAA", "protein production": "failed"},
      {"sequence": "MQTRLATKQDIDTLATLERQHLNDELISGGFHLEGQAFTRTELTQLVEKHWIVVAEVNGRIIGYVIAGRWSFFETWPIYRNMLQRLNRMNGDGPQLTTQNSCQYGPIWIDNAHRGQGVFEALIAGIYREVAPSFDYMVTFIADENERSLAAHTRKANM", "protein production": "failed"},
      {"sequence": "MQTVKYLARNSGFLFLNGIATNILSFFAMLYIARHLGPEDYGIFSFAFAFIYFFSFIPDMGVHQILVREAAKEPGKAGKLIGNGTIIKFFLSFVAIILAFILINLIGFPSSTKNALYIASLGLLISGTGAYGIIYEAKLRMEYSLLFNLVSRVCLLLFVFLAVAINSTLNTFIFASVSATFVHNLLMVLFSKKLVKVSFNPDITLIKQLLREAIPIAIASVFTVVYFKIDVLMLSFLRGDAEVGFYSAAYRLTDALVFLPSAFTTSTFPLMSRYFKESFNSFSFAYARTFKYLFASGLLIAVLVTFASEKIILIFYGPEYQNSVIALQILIWATAITFISVLISSTCVSSGNQQIISKTAILAALLNVSLNLILIPSTGYIGAAVATVLSVLGSMVFGLIWVHKNLLHENPLKGTISPIIGAGVVSLFIILLEPYADIMFLSAVSVPLFAAVLYTTGWIDSDDKTIFLKLFPASRLNSKKF", "protein production": "failed"},
      {"sequence": "MQVSREFKGIFLASISATFWGISGAVAQTLFDTTDINSIWLTGIRMLGAGIALLLVSLLTHVDLWSIWRQPRDLLQIVAYTLLGLMPVQFTYFLAVEASNAATGTILQFMGPVFIALWMLVAHRQLPTRAEGLAIICALLGSFLLVTHGNPQTLVISVWALIWGLLSGVSSATNTLLPTKLLTKYDPMTVNTWSMLLGGILFNIVQPVWSIHIPLTMLNISKLTFVVLFGTLLAFLFFLQSLQYIRPTVVSLLDAFEPLSATIIAVVLLGVSFGWLDILGSVLIISTVFILAIGQGPNDRTAENFKQP", "protein production": "failed"}
    ]}
  ]
}
